From publication PMC2970552, “Structural Studies of the Tandem Tudor Domains of Fragile X Mental Retardation Related Proteins FXR1 and FXR2” (PLoS ONE, 2010)
Where no end group is shown, it is not given here. Me3 = trimethyl-lysine (Kme3); Me2 = dimethyl-lysine (Kme2)

What was measured:
[1] = molecular target: FXR2 Tudor domains (Homo sapiens, UniProt P51116); assay: Fluorescence polarization binding of histone peptides to FXR2 tandem Tudor domains; settings: bound printed in mM in the cell, fluoresceinated peptide 100 nM, 20 mM Tris-Cl pH 8.0, 50 mM NaCl, 1 mM DTT, 30 min room temperature
[2] = molecular target: FXR1 Tudor domains (Homo sapiens, UniProt P51114); assay: Fluorescence polarization binding of histone peptides to FXR1 tandem Tudor domains; settings: bound printed in mM in the cell, fluoresceinated peptide 100 nM, 20 mM Tris-Cl pH 8.0, 50 mM NaCl, 1 mM DTT, 30 min room temperature
[3] = molecular target: T1, FXR1 tandem Tudor domains (amino acids 2 to 132 of Fragile X Mental Retardation Syndrome-related Protein 1) (UniProt P51114 2-132); assay: fluorescence polarisation; fluoresceinated peptide at 100 nM; FXR1 (stock 1.03 mM) or FXR2 (stock 2.4 mM) in serial twofold dilutions from 1/2 to 1/1024; 20 mM Tris-Cl pH 8.0, 50 mM NaCl, 1 mM DTT; room temperature, 30 minutes; settings: both partners purified
T1 construct: Fragile X Mental Retardation Syndrome-related Protein 1 (FXR1), amino acids 2 to 132, tandem Tudor domains; residues 4 to 122 seen in the crystal structure; Cloned in pET-28a-MHL as His6-TEV-FXR1; The methods describe expression in minimal media with selenomethionine; also called FXR1 Tudor domains; NLS of FXR1; source: E. coli BL21 derivative with pRARE, purified (Ni-NTA, Superdex 75); not …

[4] = molecular target: T2, FXR2 tandem Tudor domains (amino acids 14 to 137 of Fragile X Mental Retardation Syndrome-related Protein 2) (UniProt P51116 14-137); assay: as above; settings: both partners purified
T2 construct: Fragile X Mental Retardation Syndrome-related Protein 2 (FXR2), amino acids 14 to 137, tandem Tudor domains; residues 13 to 136 reported for the crystal structure; Cloned in pET-28a-MHL as His6-TEV-FXR2; the purification tag was not removed from FXR2; The methods describe expression in minimal media with selenomethionine; also called FXR2 Tudor domain; NLS of FXR2; source: E. coli BL21 derivative …
T2 sequence (P51116 14-137): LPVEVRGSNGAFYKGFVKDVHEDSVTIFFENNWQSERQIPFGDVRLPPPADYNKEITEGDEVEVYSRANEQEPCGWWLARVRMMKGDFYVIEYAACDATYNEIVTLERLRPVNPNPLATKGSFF

T1 sequence (P51114 2-132): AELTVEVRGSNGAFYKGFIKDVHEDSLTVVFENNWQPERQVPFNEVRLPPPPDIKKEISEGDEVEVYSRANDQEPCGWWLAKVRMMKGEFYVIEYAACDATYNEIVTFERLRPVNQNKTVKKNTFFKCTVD

Row | Kd [3] [µM] | Kd [4] [µM] | Molecule | also measured
1 | 660 ± 121 |  | ARTK(Me3)QTARKST (also: fluorescein, position not given here, histone H3 tail peptide, K4 trimethylated; source: synthetic peptide (Tufts University Core Services)) [H3K4me3 peptide] | 
2 | 692 ± 113 | 448 ± 19 | GGAKRHRK(Me3)VLRD (also: fluorescein, position not given here, histone H4 tail peptide, K20 trimethylated; source: synthetic peptide (Tufts University Core Services)) [H4K20me3 peptide, fluoresceinated] | 

Continued, molecule first:

Row | Molecule | Kd [3] [µM] | Kd [4] [µM] | also measured
3 | C[C@H](N)C(=O)N[C@@H](CCCNC(=N)N)C(=O)N[C@H](C(=O)N[C@@H](CCCC[N+](C)(C)C)C(=O)N[C@@H](CCC(N)=O)C(=O)N[C@H](C(=O)N[C@@H](C)C(=O)N[C@@H](CCCNC(=N)N)C(=O)N[C@@H](CCCCN)C(=O)N[C@@H](CO)C(=O)N[C@H](C(=O)O)[C@@H](C)O)[C@@H](C)O)[C@@H](C)O [H3K4me3] |  |  | Kd [1]: > 1 mM
4 | CC(C)C[C@H](NC(=O)[C@@H](NC(=O)[C@H](CCCCN)NC(=O)[C@H](CCCNC(=N)N)NC(=O)[C@H](Cc1c[nH]cn1)NC(=O)[C@H](CCCNC(=N)N)NC(=O)[C@H](CCCCN)NC(=O)[C@H](C)NC(=O)CNC(=O)CN)C(C)C)C(=O)N[C@@H](CCCNC(=N)N)C(=O)N[C@@H](CC(=O)O)C(=O)N[C@@H](CC(N)=O)C(=O)O [H4K20] |  |  | Kd [2]: > 1 mM
5 | GGAKRHRK(Me2)VLRD (histone H4 tail peptide, K20 dimethylated; source: synthetic peptide (Tufts University Core Services)) [H4K20me2 peptide] |  | 633 ± 30 | 
6 | GGAKRHRKVLRDN (also: fluorescein, position not given here, histone H4 tail peptide around K20, unmethylated; also called H4K20Me0; source: synthetic peptide (Tufts University Core Services)) [H4K20 peptide (unmethylated histone H4 peptide)] |  | 1060 ± 63 | 
